Where “and” joins values, the source holds several entries; their conditions need not be identical. Equal values may be shown once.
Key:
[1] = Salt tolerance of LccA, residual SGZ oxidizing activity after pre-incubation in NaCl; assay type: physicochemical; conditions: 100 mM to at least 1.4 M NaCl, FIG. 6E
[2] = Laccase activity assay, oxidation of ABTS; assay type: biochemical
From the text: (§1) FIG. 6D-Thermostability of LccA.

[3] = Thermostability of LccA, residual SGZ oxidizing activity after pre-incubation; assay type: physicochemical
Procedure: as §1
LccA was fully active after 1 h at 55° C. and 5 h at 50° C., with a half-live of inactivation at 50° C. of 31.5 h (FIG. 6D). […] (Fernandes et al., 2007). Likewise, the recently studied recombinant RL 5 laccase from rumen metagenome has maximal activity at 60° C. and is fully stable at this temperature for 200 min (Beloqui et al., 2006). […] (Martins et al., 2002).

[4] = Oxidation of ferrous ammonium sulfate; assay type: biochemical; conditions: presence or absence of copper supplementation
[5] = Laccase activity assay, oxidation of DMP with copper sulfate; assay type: biochemical; conditions: US02-purified LccA, standard conditions, CuSO4 added
Oxidation of bilirubin = assay type: biochemical; conditions: US02-purified LccA
Oxidation of guaiacol = assay type: biochemical; conditions: presence or absence of copper supplementation
[6] = Effect of mixed organo-solvents on LccA stability, residual SGZ oxidizing activity; assay type: physicochemical; conditions: 185 mM NaCl
Procedure: as §1
Commonly used water miscible organo-solvents (i.e., methanol, ethanol, dimethyl sulfoxide or DMSO and dimethylformamide or DMF) were examined for their compatibility with LccA stability and activity. […] LccA was relatively stable in all solvents examined, retaining nearly 75% of its activity after 24 h incubation in methanol or ethanol and over 50% of its activity after incubation in DMSO or DMF. The influence of water-miscible cosolvents on enzyme activity and stability has been examined for several fungal laccases (Rodakiewicz-Nowak et al., 1999; Robles et al., 2002; Milstein et al., 1993; Luterek et al., 1998; Cantarella et al., 2003). These prior studies coupled with the current findings reveal a wide-variety of laccases, including LccA, are stable and/or can support catalysis and conversion of phenolic substrates in water-organic mixed solvents. Since most of the substrates and mediators of laccases are insoluble or poorly soluble in water and the degree of polymerization of phenoxyl radicals is higher in aqueous media (Milstein et al., 1993), solvent stability is an important feature to consider in optimizing this group of enzymes.

[7] = Delignification of steam exploded sugarcane bagasse, total phenol by Folin-Ciocalteau
Procedure: Prior to enzymatic treatment, sugarcane bagasse was treated with 1% (v/v) phosphoric acid and steam exploded in a shotgun reactor at 190° C. for 10 min. The resultant bagasse was adjusted to pH 8.4 with 5M NaOH.
Stream exploded bagasse was delignified using the laccase, LccA, from H. volcanii US02. LccA was prepared for the delignification reaction by concentrating H. volcanii US02 culture supernatant 5-fold with ethanol precipitation and dialyzing the concentrate against 25 mM Tris buffer pH 8.4 supplemented with 200 mM NaCl (T buffer) with regenerated cellulose dialysis tubing (3500 Da molecular weight cut off; Thermo Scientific SnakeSkin Pleated Dialysis Tubing).
Bagasse samples were treated with LccA in a rotary shaker at 150 rpm with similar doses of heat killed LccA enzyme (HKE) as a control. Periodically clear supernatant obtained by centrifugation of small fraction of hydrolysate was used for total phenol estimation by Folin-Ciocalteau method (Singleton and Rossi, 1965). Optimal conditions were determined to be treatment with 3 Uml^1 LccA at 37° C. in T buffer at pH 8.4 for 3-6 h.

[8] = Laccase activity assay, oxidation of SGZ (syringaldazine); conditions: for Km: read-out: Km, SGZ
Procedure: LccA (51 μg·ml^−1) activity was assayed at different temperatures (22° to 70° C.) in T buffer with 185 mM NaCl using SGZ (1 mM) as the substrate. […] LccA activity was assayed with SGZ (●) from pH 6 to 11 and with ABTS (◯) from pH 3 to 8 at 45° C. using following buffers: 100 mM sodium acetate for pH 3 to 6, 25 mM Tris-HCl for pH 7 to 10, and 25 mM glycine-NaOH for pH 11. Activity is expressed as percent relative to oxidation of ABTS at pH 6. […] Purified enzyme (50.6 μg·ml^−1) was pre-incubated in T buffer supplemented with 185 mM NaCl at temperatures from 37° to 70° C. for up to 60 h, as indicated. […] Activity is presented as percent relative to incubation on ice (37° C. (●), 45° C. (▪), 50° C. (▴), 55° C. (♦), 60° C. (◯), 65° C. (□) and 70° C. (Δ)); FIG. 6E-Salt tolerance of LccA protein. Purified enzyme (16.5 μg·ml^−1) was pre-incubated for 30 min in T buffer at pH 8.4 supplemented with different concentrations of NaCl (0 to 1.4 M) as indicated. Samples were diluted to a final concentration 4.12 μg·ml^−1 protein and 185 mM NaCl in T buffer and assayed for SGZ oxidizing activity under standard conditions. Residual activity was calculated as percent relative to incubation at 185 mM NaCl. […] Enzyme (7.5 μg·ml^−1) was incubated in T buffer with 185 mM NaCl in the presence and absence of 25% (v/v) solvent (DMSO, DMF, ethanol and methanol) at room temperature for 90 min (white bar), 3 h (grey bar) and 24 h (black bar). […] Activity is calculated as percent relative to incubation without solvent.
Enzyme activity was determined by change in absorbance, in triplicate, by UV/Visible-spectroscopy using a BioTek Synergy HT multi-detection microplate reader with a 96-well plate. Oxidation of substrate was monitored by absorbance increase (ABTS at 420 nm with ε=36,000 M^−1 cm^−1; SGZ at 526 nm with ε=65,000 M^−1 cm^−1; DMP at 468 nm with ε=49,000 M^−1 cm^−1; guaiacol at 436 nm with ε=26,600 M^−1 cm^−1; ferrous ammonium sulfate at 315 nm with ε=2,200 M^−1 cm^−1) or decrease (bilirubin at 440 nm with ε=56,300 M^−1 cm^−1). Standard assay conditions were 185 mM NaCl at 45° C. with the following buffers and substrate concentrations: 100 mM sodium acetate buffer at pH 6.0 for ABTS (at 5 mM), DMP (at 2 mM) and guaiacol (at 5 mM); 25 mM Tris-HCl buffer at pH 8.4 for SGZ (at 1 mM); and 200 mM Tris-HCl buffer at pH 8.4 for bilirubin (0.45 mM). Copper sulfate (1 mM) was included for assay of DMP oxidation. Oxidation of ferrous ammonium sulphate (1 mM) was monitored at 315 nm (ε=2,200 M^−1 cm^−1) with and without salt (185 mM NaCl) in 100 mM MES (morpholineethanesulfonic acid) buffer at pH 5 as well as 25 mM Tris-HCl buffer at pH 7.0 and 8.4. One unit of enzyme activity is defined as the amount of enzyme that oxidizes 1 μmol of substrate per min at standard conditions. […] Kinetic parameters (Km, Vmax, and kcat) were determined using the Michaelis-Menten equation. […] All assays and protein purifications were performed at least in triplicate.
To further evaluate the catalytic properties of LccA, the temperature, pH and salt optima of the purified enzyme were determined using SGZ and/or ABTS as substrates.

[9] = LccA from culture broth of Hfx. volcanii BS01
[10] = LccA from culture broth of Hfx. volcanii US02

pH optimum, SGZ oxidization ([8]; 45° C., FIG. 6C): 8.4
Activity relative to temperature optimum ([8]; 55° C.): 67%
Activity relative to temperature optimum ([8]; 60° C.): 48%
Activity relative to temperature optimum ([8]; 65° C.): 35%
Activity relative to temperature optimum ([8]; 70° C.): 15%
Salt concentration for optimal activity ([8]; NaCl or KCl in T buffer at 45° C., FIG. 6B): ~200 mM
Activity in KCl higher than in NaCl ([8]; at ~200 mM salt): 1.5 fold
Activity relative to temperature optimum ([8]; room temperature (25° C.)): ~75%
B1: LccA: Haloferax volcanii laccase of the multicopper oxidase family, SEQ ID NO: 2, secreted glycoprotein purified from culture broth of strain US02 (protein, listed as Haloferax volcanii)
chain: MTDWSRRRFLQTGAALGIAGTLPQTTTEVSAASPTLEKFVQPLPIPSVREPDGQRDGADAYEIAVTEFTQQLHPDLPETTVWGFDGSYPGPTIEADAGSPVHVRFDNSGLPSEHLFPVDDRLGGTTAENHPGYDGPVPEVRTVTHFHGLELDPANDGQSDMWTSPGGVEGPRFDSAWQELPMEQGRTTSTYHDHTLGITRLNAYAGLLGLYSITTDAERELGLPSGDYDIPLLLQDKEFNDDGSLHYPEEFVSAFLGDTAVVNGAVWPYVEVEPRRYRFRILNGANHRSFDLQLESESGSGVPTMYQFAPGHGFLESVVPIGPNGDLDSLLLTPFERGELVVDFSDHAGETLTLANGADMGPELTDLVEFRVSDPSTPPEDASADPTSLSLPTPASYDESDARVTREMTLGTEVRNGLITHTLNGHVFGDEDAPVYPQLGATEIWELQNESGGRHPIHLHLVTFRVIGRGPDGTQPPDPNELGPKDTVRVDPGERVRILVTFEGYTGQFPWHCHMLEHEDNKMMIPFVVENPVADYANEENVVDATGLTDAVGDWRNETLETEVLLEVIDQWRSGDEVA
modifications: glycosylated
Activity retained after incubation in NaCl [1]: nearly all of its original activity
pH optimum, ABTS oxidation ([2]; 45° C., FIG. 6C): 6.0
Km [2, 9]: 700 µM
kcat, ABTS [2, 9]: 10.0 s⁻¹
Km [2, 10]: 671 µM
kcat, ABTS [2, 10]: 9.9 s⁻¹
Specific activity, ABTS oxidation ([2]; US02-purified LccA, standard conditions): 6.1±0.39 U·mg^−1
Activity retained after incubation ([3]; 37° C., 2½ days): nearly all of its original activity
Activity after pre-incubation ([3]; 1 h at 55° C.): fully active
Activity after pre-incubation ([3]; 5 h at 50° C.): fully active
Oxidation of Fe^2+ (ferrous ammonium sulphate) [4]: did not oxidize
Specific activity, DMP oxidation [5]: 12.6±1.1 U·mg^−1
Km (Oxidation of bilirubin): 236 µM
kcat, bilirubin (Oxidation of bilirubin): 29 s⁻¹
Specific activity, bilirubin oxidation (Oxidation of bilirubin; standard conditions): 25.5±1 U·mg^−1
Oxidation of guaiacol (Oxidation of guaiacol): did not oxidize
Activity retained after incubation in solvent ([6]; 25% (v/v) DMSO or DMF): over 50%
Activity retained after incubation in solvent ([6]; 24 h, 25% (v/v) methanol or ethanol): ~75%
Phenol content after treatment ([7]; 3 h of treatment, from 1473±10 before): 1160±26 mg phenol per liter
Reduction in the phenol content ([7]; 3 h of treatment, ~1 g dry weight bagasse in 15 ml T buffer): 21%
Reduction in the phenol content ([7]; bagasse (~1 g dry weight equivalents) in 50 ml of T buffer): 38-43%
kcat, SGZ [8, 9]: 19.4 s⁻¹
kcat, SGZ [8, 10]: 21.7 s⁻¹
Specific activity, SGZ oxidation ([8]; LccA purified from H. volcanii US02, fraction F2 (upper fraction), MonoQ 10/10): F2, 6.7 U · mg^−1
Specific activity, SGZ oxidation ([8]; improved purification protocol from H. volcanii US02, MonoQ 10/10 pH 8.4): 51.5 U·mg^−1
Specific activity, SGZ oxidation ([8]; purified from culture broth of Hfx. volcanii SB01 (C-terminal StrepII tag), final MonoQ 10/10 pH 8.4): 1.3 U·mg^−1 and 1.34 U·mg^−1
Km [8, 9]: 67 µM
Km [8, 10]: 35 µM
